# Experimental data published in US20210198341A1 (published 2021).
# T1: RGS5 peptide on HLA-DRA / HLA-DRB1*09:01 (human)
# T1 peptide: AKEIKIKLGILLQKP
# T2: RGS5 peptide on HLA-DRA / HLA-DRB4*01:03 (human)
# T2 peptide: AKEIKIKLGILLQKP
# T3: HPV18-E7 peptide on HLA-DPA1*02:02 / HLA-DPB1*05:01 (human)
# T3 peptide: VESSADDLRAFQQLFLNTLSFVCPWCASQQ
# T4: HPV18-E7 peptide on HLA-DPA1*01:03 / HLA-DPB1*02:01 (human)
# T4 peptide: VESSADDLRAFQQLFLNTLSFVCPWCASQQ
# T5: RGS5 peptide on HLA-DRA / HLA-DRB1*09:01 (human)
# T5 peptide: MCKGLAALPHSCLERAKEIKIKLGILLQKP
# T6: RGS5 peptide on HLA-DRA / HLA-DRB4*01:03 (human)
# T6 peptide: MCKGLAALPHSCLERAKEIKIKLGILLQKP
# T7: HPV18-E7 peptide on HLA-DRA / HLA-DRB4*01:03 (human)
# T7 peptide: RAFQQLFLNTLSFVCPWCA
# T8: HPV18-E7 peptide on HLA-DRA / HLA-DRB1*09:01 (human)
# T8 peptide: RAFQQLFLNTLSFVCPWCA
# Columns and labels:
# Assay in all cases: cytokine release
# [1] = target: T1, RGS5 peptide on HLA-DRA / HLA-DRB1*09:01
# [2] = target: T2, RGS5 peptide on HLA-DRA / HLA-DRB4*01:03
# [3] = target: T3, HPV18-E7 peptide on HLA-DPA1*02:02 / …
# [4] = target: T4, HPV18-E7 peptide on HLA-DPA1*01:03 / …
# [5] = target: T5, RGS5 peptide on HLA-DRA / HLA-DRB1*09:01
# [6] = target: T6, RGS5 peptide on HLA-DRA / HLA-DRB4*01:03
# [7] = target: T7, HPV18-E7 peptide on HLA-DRA / …
# [8] = target: T8, HPV18-E7 peptide on HLA-DRA / …
binder,measurement,setting,value
"09D01 (TCR, V domains shown) Valpha: RKEVEQDPGPFNVPEGATVAFNCTYSNSASQSFFWYRQDCRKEPKLLMSVYSSGNEDGRFTAQLNRASQYISLLIRDSKLSDSATYLCVVNMRDSSYKLIFGSGTRLLVRP Vbeta: GAVVSQHPSRVICKSGTSVKIECRSLDFQATTMFWYRQFPKKSLMLMATSNEGSKATYEQGVEKDKFLINHASLTLSTLTVTSAHPEDSSFYICSAHERITDTQYFGPGTRLTVL",binding result,[1],recognises
same,binding result,[2],recognises
"33D05 (TCR, V domains shown) Valpha: AQSVTQLDSHVSVSEGTPVLLRCNYSSSYSPSLFWYVQHPNKGLQLLLKYTSAATLVKGINGFEAEFKKSETSFHLTKPSAHMSDAAEYFCVVSAIGYSSASKIIFGSGTRLSIRP Vbeta: DTGVSQNPRHKITKRGQNVTFRCDPISEHNRLYWYRQTLGQGPEFLTYFQNEAQLEKSRLLSDRFSAERPKGSFSTLEIQRTEQGDSAMYLCASSLVAGGPAETQYFGPGTRLLVL",binding result,[3],recognises
same,binding result,[4],recognises
"09H05 (TCR, V domains shown) Valpha: RKEVEQDPGPFNVPEGATVAFNCTYSNSASQSFFWYRQDCRKEPKLLMSVYSSGNEDGRFTAQLNRASQYISLLIRDSKLSDSATYLCVVNMKDSSYKLIFGSGTRLLVRP Vbeta: GAVVSQHPSRVICKSGTSVKIECRSLDFQATTMFWYRQFPKKSLMLMATSNEGSKATYEQGVEKDKFLINHASLTLSTLTVTSAHPEDSSFYICSALEGTSGKETQYFGPGTRLLVL",binding result,[1],recognises
same,binding result,[2],recognises
"09E01 (TCR, V domains shown) Valpha: GQQVMQIPQYQHVQEGEDFTTYCNSSTTLSNIQWYKQRPGGHPVFLIQLVKSGEVKKQKRLTFQFGEAKKNSSLHITATQTTDVGTYFCAGPGNQFYFGTGTSLTVIP Vbeta: NAGVTQTPKFQVLKTGQSMTLQCAQDMNHEYMSWYRQDPGMGLRLIHYSVGAGITDQGEVPNGYNVSRSTTEDFPLRLLSAAPSQTSVYFCASSSWDRDQPQHFGDGTRLSIL",binding result,[5],recognises
same,binding result,[6],recognises
"10F04 (TCR, V domains shown) Valpha: QKEVEQDPGPLSVPEGAIVSLNCTYSNSAFQYFMWYRQYSRKGPELLMYTYSSGNKEDGRFTAQVDKSSKYISLFIRDSQPSDSATYLCAMSPRSGYALNFGKGTSLLVTP Vbeta: DGGITQSPKYLFRKEGQNVTLSCEQNLNHDAMYWYRQDPGQGLRLIYYSQIVNDFQKGDIAEGYSVSREKKESFPLTVTSAQKNPTAFYLCASSMDAALGEKLFFGSGTQLSVL",binding result,[7],recognises
same,binding result,[8],recognises
